The record followed here is ChEMBL document CHEMBL3596158, “Exploring the substrate promiscuity of an antibiotic inactivating enzyme” (Medchemcomm, 2014).

The target of data set [1] is T1, Microcin C7 self-immunity protein MccF (Escherichia coli) (UniProt Q47511).
T1 sequence (whole entry): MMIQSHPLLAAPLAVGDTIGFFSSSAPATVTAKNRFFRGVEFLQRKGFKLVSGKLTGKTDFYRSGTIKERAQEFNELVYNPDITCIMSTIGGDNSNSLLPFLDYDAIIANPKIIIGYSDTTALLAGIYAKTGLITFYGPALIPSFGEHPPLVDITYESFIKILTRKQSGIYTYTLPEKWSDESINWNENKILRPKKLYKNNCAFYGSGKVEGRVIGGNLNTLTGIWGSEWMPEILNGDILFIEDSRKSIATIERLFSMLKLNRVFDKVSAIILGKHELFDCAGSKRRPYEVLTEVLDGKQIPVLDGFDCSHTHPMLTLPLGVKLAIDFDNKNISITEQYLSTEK
Kind of data set: Ratio of compound Kcat/Km to ESA Kcat/Km for wild type Escherichia coli MccF expressed in Escherichia coli Rosetta2 (DE3).

Substrate in data set [2]: N[C@@H](CCC(=O)O)C(=O)NS(=O)(=O)OC[C@H]1O[C@@H](n2cnc3c(=O)[nH]cnc32)[C@H](O)[C@@H]1O
Nature of the data set: (§1) Substrate activity at wild type Escherichia coli MccF expressed in Escherichia coli Rosetta2 (DE3) by bovine glutamate dehydrogenase-coupled continuous assay.

Substrate in data set [3]: Nc1ncnc2c1ncn2[C@@H]1O[C@H](COS(=O)(=O)NC(=O)[C@@H](N)CCC(=O)O)[C@@H](O)[C@H]1O
The description is as §1.

Substrate in data set [4]: Nc1nc2c(ncn2[C@@H]2O[C@H](COS(=O)(=O)NC(=O)[C@@H](N)CCC(=O)O)[C@@H](O)[C@H]2O)c(=O)[nH]1
Described as §1.

For `N[C@@H](CCC(=O)O)C(=O)NS(=O)(=O)OC[C@H]1O[C@@H](n2cnc3c(=O)[nH]cnc32)[C@H](O)[C@@H]1O`, the Ratio in data set [1] was found to be 0.6.

`Nc1nc2c(ncn2[C@@H]2O[C@H](COS(=O)(=O)NC(=O)[C@@H](N)CCC(=O)O)[C@@H](O)[C@H]2O)c(=O)[nH]1`: the Ratio in data set [1] stood at 1.5.

B1: Microcin C7 self-immunity protein MccF (Escherichia coli), Q47511 (protein)
chain: MMIQSHPLLAAPLAVGDTIGFFSSSAPATVTAKNRFFRGVEFLQRKGFKLVSGKLTGKTDFYRSGTIKERAQEFNELVYNPDITCIMSTIGGDNSNSLLPFLDYDAIIANPKIIIGYSDTTALLAGIYAKTGLITFYGPALIPSFGEHPPLVDITYESFIKILTRKQSGIYTYTLPEKWSDESINWNENKILRPKKLYKNNCAFYGSGKVEGRVIGGNLNTLTGIWGSEWMPEILNGDILFIEDSRKSIATIERLFSMLKLNRVFDKVSAIILGKHELFDCAGSKRRPYEVLTEVLDGKQIPVLDGFDCSHTHPMLTLPLGVKLAIDFDNKNISITEQYLSTEK
What is called Km is the concentration of substrate that gives half-maximal velocity. Usually kcat stands for the maximal rate divided by the concentration of active sites. For B1, the values for the Km in data set [2], in data set [3] and in data set [4] were 90.9 µM, 51.6 µM and 33.4 µM, respectively. Further, the values for the kcat in data set [2], in data set [3] and in data set [4] were 0.635 s⁻¹, 0.583 s⁻¹ and 0.582 s⁻¹, respectively.
